Results: patent US20170240883A1, “CYCLIC PEPTIDES EXPRESSED BY A GENETIC PACKAGE” (Miti Biosystems GmbH, priority 2014, published 2017)

B1: CelfProcM5: C-terminal leaderA4.3 ProcM enzyme-leader fusion, 5-pair linker, used to modify leader-free SynLib1 (protein)
chain: MSEEQLKAFIAKVQADTSLQEQLKAEGADVVAIAKAAGFTITTEDLNSHRQNLTDDELEGVAGGSASGSGSGSAMESPSSWKTSWLAAIAPDEPHKFDRRLEWDELSEENFFAALNSEPASLEEDDPCFEEALQDALEALKAAWDLPLLPVDNNLNRPFVDVWWPIRCHSAESLRQSFVSDSAGLADEIFDQLADSLLDRLCALGDQVLWEAFNKERTPGTMLLAHLGAAGDGSGPPVREHYERFIQSHRRNGLAPLLKEFPVLGRLIGTVLSLWFQGSVEMLQRICADRTVLQQCFAIPCGHHLKTVKQGLSDPHRGGRAVAVLEFADPNSTANSSMHVVYKPKDMAVDAAYQATLADLNTHSDLSPLRTLAIHNGNGYGYMEHVVHHLCANDKELTNFYFNAGRLTALLHLLGCTDCHHENLIACGDQLLLIDTETLLEADLPDHISDASSTTAQPKPSSLQKQFQRSVLRSGLLPQWMFLGESKLAIDISALGMSPPNKPERIALGWLGFNSDGMMPGRVSQPVEIPTSLPVGIGEVNPFDRFLEDFCDGFSMQSEALIKLRNRWLDVNGVLAHFAGLPRRIVLRATRVYFTIQRQQLEPTALRSPLAQALKLEQLTRSFLLAESKPLHWPIFAAEVKQMQHLDIPFFTHLIDADALQLGGLEQELPGFIQTSGLAAAYERLRNLDTDEIAFQLRLIRGAVEARELHTTPESSPTLPPPATPEALMSSSAETSLEAAKRIAHRLLELAIRDSQGQVEWLGMDLGADGESFSFGPVGLSLYGGSIGIAHLLQRLQAQQVSLMDADAIQTAILQPLVGLVDQPSDDGRRRWWRDQPLGLSGCGGTLLALTLQGEQAMANSLLAAALPRFIEADQQLDLIGGCAGLIGSLVQLGTESALQLALRAGDHLIAQQNEEGAWSSSSSQPGLLGFSHGTAGYAAALAHLHAFSADERYRTAAAAALAYERARFNKDAGNWPDYRSIGRDSDSDEPSFMASWCHGAPGIALGRACLWGTALWDEECTKEIGIGLQTTAAVSSVSTDHLCCGSLGLMVLLEMLSAGPWPIDNQLRSHCQDVAFQYRLQALQRCSAEPIKLRCFGTKEGLLVLPGFFTGLSGMGLALLEDDPSRAVVSQLISAGLWPTESASGSGSGSAMSEEQLKAFIAKVQADTSLQEQLKAEGADVVAIAKAAGFTITTEDLNSHRQNLTDDELEGVAGG
modifications: Enzyme-Leader-Fusion
B2: CelfProcM10: C-terminal leaderA4.3 ProcM enzyme-leader fusion, 10-pair linker, used to modify leader-free SynLib1 (protein)
chain: MSEEQLKAFIAKVQADTSLQEQLKAEGADVVAIAKAAGFTITTEDLNSHRQNLTDDELEGVAGGSASGSGSGSAMESPSSWKTSWLAAIAPDEPHKFDRRLEWDELSEENFFAALNSEPASLEEDDPCFEEALQDALEALKAAWDLPLLPVDNNLNRPFVDVWWPIRCHSAESLRQSFVSDSAGLADEIFDQLADSLLDRLCALGDQVLWEAFNKERTPGTMLLAHLGAAGDGSGPPVREHYERFIQSHRRNGLAPLLKEFPVLGRLIGTVLSLWFQGSVEMLQRICADRTVLQQCFAIPCGHHLKTVKQGLSDPHRGGRAVAVLEFADPNSTANSSMHVVYKPKDMAVDAAYQATLADLNTHSDLSPLRTLAIHNGNGYGYMEHVVHHLCANDKELTNFYFNAGRLTALLHLLGCTDCHHENLIACGDQLLLIDTETLLEADLPDHISDASSTTAQPKPSSLQKQFQRSVLRSGLLPQWMFLGESKLAIDISALGMSPPNKPERIALGWLGFNSDGMMPGRVSQPVEIPTSLPVGIGEVNPFDRFLEDFCDGFSMQSEALIKLRNRWLDVNGVLAHFAGLPRRIVLRATRVYFTIQRQQLEPTALRSPLAQALKLEQLTRSFLLAESKPLHWPIFAAEVKQMQHLDIPFFTHLIDADALQLGGLEQELPGFIQTSGLAAAYERLRNLDTDEIAFQLRLIRGAVEARELHTTPESSPTLPPPATPEALMSSSAETSLEAAKRIAHRLLELAIRDSQGQVEWLGMDLGADGESFSFGPVGLSLYGGSIGIAHLLQRLQAQQVSLMDADAIQTAILQPLVGLVDQPSDDGRRRWWRDQPLGLSGCGGTLLALTLQGEQAMANSLLAAALPRFIEADQQLDLIGGCAGLIGSLVQLGTESALQLALRAGDHLIAQQNEEGAWSSSSSQPGLLGFSHGTAGYAAALAHLHAFSADERYRTAAAAALAYERARFNKDAGNWPDYRSIGRDSDSDEPSFMASWCHGAPGIALGRACLWGTALWDEECTKEIGIGLQTTAAVSSVSTDHLCCGSLGLMVLLEMLSAGPWPIDNQLRSHCQDVAFQYRLQALQRCSAEPIKLRCFGTKEGLLVLPGFFTGLSGMGLALLEDDPSRAVVSQLISAGLWPTESASGSGSGSGSTSGSGSGSAMSEEQLKAFIAKVQADTSLQEQLKAEGADVVAIAKAAGFTITTEDLNSHRQNLTDDELEGVAGG
modifications: Enzyme-Leader-Fusion
B3: CelfProcM15: C-terminal leaderA4.3 ProcM enzyme-leader fusion, 15-pair linker, used to modify leader-free SynLib1 (protein)
chain: MSEEQLKAFIAKVQADTSLQEQLKAEGADVVAIAKAAGFTITTEDLNSHRQNLTDDELEGVAGGSASGSGSGSAMESPSSWKTSWLAAIAPDEPHKFDRRLEWDELSEENFFAALNSEPASLEEDDPCFEEALQDALEALKAAWDLPLLPVDNNLNRPFVDVWWPIRCHSAESLRQSFVSDSAGLADEIFDQLADSLLDRLCALGDQVLWEAFNKERTPGTMLLAHLGAAGDGSGPPVREHYERFIQSHRRNGLAPLLKEFPVLGRLIGTVLSLWFQGSVEMLQRICADRTVLQQCFAIPCGHHLKTVKQGLSDPHRGGRAVAVLEFADPNSTANSSMHVVYKPKDMAVDAAYQATLADLNTHSDLSPLRTLAIHNGNGYGYMEHVVHHLCANDKELTNFYFNAGRLTALLHLLGCTDCHHENLIACGDQLLLIDTETLLEADLPDHISDASSTTAQPKPSSLQKQFQRSVLRSGLLPQWMFLGESKLAIDISALGMSPPNKPERIALGWLGFNSDGMMPGRVSQPVEIPTSLPVGIGEVNPFDRFLEDFCDGFSMQSEALIKLRNRWLDVNGVLAHFAGLPRRIVLRATRVYFTIQRQQLEPTALRSPLAQALKLEQLTRSFLLAESKPLHWPIFAAEVKQMQHLDIPFFTHLIDADALQLGGLEQELPGFIQTSGLAAAYERLRNLDTDEIAFQLRLIRGAVEARELHTTPESSPTLPPPATPEALMSSSAETSLEAAKRIAHRLLELAIRDSQGQVEWLGMDLGADGESFSFGPVGLSLYGGSIGIAHLLQRLQAQQVSLMDADAIQTAILQPLVGLVDQPSDDGRRRWWRDQPLGLSGCGGTLLALTLQGEQAMANSLLAAALPRFIEADQQLDLIGGCAGLIGSLVQLGTESALQLALRAGDHLIAQQNEEGAWSSSSSQPGLLGFSHGTAGYAAALAHLHAFSADERYRTAAAAALAYERARFNKDAGNWPDYRSIGRDSDSDEPSFMASWCHGAPGIALGRACLWGTALWDEECTKEIGIGLQTTAAVSSVSTDHLCCGSLGLMVLLEMLSAGPWPIDNQLRSHCQDVAFQYRLQALQRCSAEPIKLRCFGTKEGLLVLPGFFTGLSGMGLALLEDDPSRAVVSQLISAGLWPTESASGSGSGSGSGSGSGSGSGSTSGSGSGSAMSEEQLKAFIAKVQADTSLQEQLKAEGADVVAIAKAAGFTITTEDLNSHRQNLTDDELEGVAGG
modifications: Enzyme-Leader-Fusion

Target: T1, Human Plasma Kallikrein (Homo sapiens, UniProt P03952)
T1 construct: purchased Molecular Innovations, Inc, USA
Test: Phage selection of leader-free SynLib1 library modified by Celf ProcM enzyme-leader fusions on biotinylated kallikrein (output titre)
Format: binding
Conditions: R1, 100 nM kallikrein
Method: Human Plasma Kallikrein (Molecular Innovations, Inc, USA) at 1.15 mg/ml (13 μM) solution in 4 mM acetate, 150 mM NaCl, pH 5.3 was biotinylated using NHS-PEG4-Biotin from the EZ-link micro-PEO4-biotinylation kit (Pierce Biotechnology, USA). 680 μl of water was added to the contents of the pre-weighed vial of biotinylation reagent to make a 5 mM solution. 1 μl of this solution was added to 100 μl of the kallikrein solution. This was incubated at RT for 1 hour prior to the separation of the biotinylated protein from the unreacted biotin, using a 2 ml Spin Desalting column (Pierce Biotechnology, USA). The volume of the kallikrein was made up to 350 μl with PBS (Formedium Ltd, UK) and was loaded onto the spin column which had been equilibrated with PBS (as per the manufacturer's instructions). When this solution had been absorbed into the column matrix, a further 50 μl of PBS was added on top and the column was spun in a centrifuge at 1000 g for 2 min. 395 μl of solution was collected, making the concentration of the biotinylated kallikrein about 3.25 μM.
150 μl of stock leader-free SynLib1 library (4.5e11 phage per μl) was added to 1850 μl of TE buffer, 2 μl 1 M TCEP (Melford Biolaboratories Ltd, UK) and incubated at RT for 20 minutes to reduce the peptides on the phage. 400 μl of 2.5 M NaCl, 20% w/v PEG 8000 was added, incubated at RT for five minutes and the precipitated phages were collected by centrifugation at 15000 g for five minutes. The supernatant was discarded and the phages were resuspended in 150 μl of 25 mM Tris pH 7.5 (Sigma Aldrich, Austria), 1 μM TCEP.
Selections are performed by removing streptavidin-binding clones by pre-exposing the library to streptavidin resin, which is then discarded, mixing the library with decreasing concentrations of biotinylated target for an hour at each round of selection, capture of the biotinylated target and thereby any phage binding the target with magnetic streptavidin resin followed by extensive washing of the resin. Finally, the washed resin has the phage eluted from the target by exposure to a low pH solution, neutralisation of the solution and infection of E. coli by the eluted phage.
Round 1 (R1) of the selection was performed by adding 50 μl of LodeStars streptavidin resin (Agilent Technologies, USA), from which the liquid had been removed by magnetic capture, to the modified phage solution for 30 minutes to capture the peptide sequence that bind to streptavidin (deselection). The resin was captured magnetically and the phage-containing supernatant was collected and made up to 500 μl with 25 mM Tris pH 7.5, 0.05% Tween 20 (Melford Biolaboratories Ltd, UK). Biotinylated kallikrein was added to 100 nM, and mixed at RT for 1 hour prior to processing on a KingFisher mL (Thermo Fisher, Austria) magnetic particle washer. The processing involved the KingFisher transferring 25 μl of streptavidin resin to the phage solution and mixing for five minutes. The resin/phage were then collected and washed in 8×1 ml of PBS+0.05% Tween 20 (PBST). The resin was then mixed in 50 μl of 50 mM glycine pH 2.2 (Melford Biolaboratories Ltd, UK) for five minutes to elute the phage and the resin was removed. The phage-containing supernatant was neutralised with 10 μl of 1 M Tris pH 8.0 and added to 1 ml of TG1 cells at A600 of 0.6 followed by incubation at 37° C., 250 rpm for 1 hour. The phage titre was determination by adding 4 μl of culture to 96 μl of water, which was used to make five, 10-fold dilutions; 10 μl from each of these was spotted onto an LB+tetracycline agar plate. The remainder of the culture was made up to 11 ml with 2TY plus tetracycline and incubated at 37° C., 250 rpm overnight.
10 ml of overnight culture was reduced with 10 μl of 1 M TCEP for 20 min at RT followed by removal of the cells by centrifugation at 15000 g for five minutes. […]

T1 sequence (P03952 20-638): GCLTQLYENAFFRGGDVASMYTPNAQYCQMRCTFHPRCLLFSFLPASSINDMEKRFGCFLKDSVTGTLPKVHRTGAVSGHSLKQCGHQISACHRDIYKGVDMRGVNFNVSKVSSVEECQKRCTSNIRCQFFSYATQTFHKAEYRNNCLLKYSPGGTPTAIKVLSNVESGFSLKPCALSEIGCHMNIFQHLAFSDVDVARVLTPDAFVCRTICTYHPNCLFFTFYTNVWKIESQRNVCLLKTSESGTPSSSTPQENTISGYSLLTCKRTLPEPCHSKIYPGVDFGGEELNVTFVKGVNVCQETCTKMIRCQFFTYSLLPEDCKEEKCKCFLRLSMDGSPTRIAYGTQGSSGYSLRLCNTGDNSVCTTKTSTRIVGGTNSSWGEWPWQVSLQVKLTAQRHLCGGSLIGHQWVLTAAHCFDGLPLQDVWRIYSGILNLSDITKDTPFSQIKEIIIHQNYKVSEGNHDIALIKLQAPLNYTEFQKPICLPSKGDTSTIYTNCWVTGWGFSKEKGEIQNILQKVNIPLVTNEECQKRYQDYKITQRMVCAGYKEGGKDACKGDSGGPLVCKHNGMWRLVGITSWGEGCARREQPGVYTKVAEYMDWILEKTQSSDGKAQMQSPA

Row | output titre (number of phages eluted at the end of the round) | Molecule
1 | 6.4e5 | B1
2 | 4.2e6 | B2
3 | 2.7e6 | B3

Same assay, conditions: R2, 33 nM kallikrein

Row | output titre (number of phages eluted at the end of the round) | Molecule
4 | 5.3e5 | B1
5 | 2.9e5 | B2
6 | 2.7e5 | B3

Same assay, conditions: R3

Row | difference in titre using 9.75 nM kallikrein and using 0 nM kallikrein | Molecule
7 | 10 fold | B1
8 | 6.5 fold | B2
9 | 36 fold | B3

Same assay, conditions: R3, 0 nM kallikrein

Row | output titre (number of phages eluted at the end of the round) | Molecule
10 | 5.0e4 | B1
11 | 5.3e4 | B2
12 | 2.7e4 | B3

Same assay, conditions: R3, 9.75 nM kallikrein

Row | output titre (number of phages eluted at the end of the round) | Molecule
13 | 5.0e5 | B1
14 | 3.4e5 | B2
15 | 9.5e5 | B3
